Data: patent US10745365B2, “Luminogenic and fluorogenic compounds and methods to detect molecules or conditions” (Promega Corporation, priority 2005, dated 2020)

Legend:
[1] = substrate: CNCCCOc1ccc2c(C)cc(=O)oc2c1; test: Fluorogenic MAO B substrate assay; assay type: biochemical, human; settings: other: fit of Table 31
Experimental: (§1) The fluorescent signal was then measured (excitation/emission=355/460 nm) on a Fluoroskan Ascent plate fluorometer.
(§2) This 90 μl contained 35 μl 200 mM Tricine pH 8.3, 35 μl 200 mM Tricine pH 8.7 (or water), 10 μl 200 mM MgSO4, and 10 μl of each substrate dilution.

[2] = substrate: NCCCOc1ccc2nc(C3=N[C@@H](C(=O)O)CS3)sc2c1; test: Two-step bioluminogenic MAO B substrate assay; assay type: biochemical, human
[3] = substrate: CNCCCOc1ccc2nc(C3=N[C@@H](C(=O)O)CS3)ccc2c1; test: Two-step bioluminogenic MAO B substrate assay; assay type: biochemical, human; settings: other: fit of Tables 23-24
[4] = substrate: CNCCCOc1ccc2c(C)cc(=O)oc2c1; test: Fluorogenic MAO A substrate assay; assay type: biochemical, human; settings: other: fit of Table 31
Experimental: as §1, §2

[5] = substrate: NCCCOc1ccc2nc(C3=N[C@@H](C(=O)O)CS3)sc2c1; test: purified protein, by the assay type; settings: other: fit of Tables 23-24
[6] = substrate: CNCCCOc1ccc2nc(C3=N[C@@H](C(=O)O)CS3)ccc2c1; test: purified protein, by the assay type
[7] = substrate: CNCCCOc1ccc2nc(C3=N[C@@H](C(=O)O)CS3)ccc2c1; test: Two-step luminescent FMO 3 assay; assay type: biochemical, human; settings: other: fit of Table 33
[8] = substrate: O=C(O)[C@H]1O[C@@H](Oc2ccc3nc(C4=N[C@@H](C(=O)O)CS4)sc3c2)[C@H](O)[C@@H](O)[C@@H]1O; test: Beta-glucuronidase (GUS) assay; assay type: biochemical, human; settings: other: 50 mM MES, pH 6.3
Experimental: The source of the human enzyme was Sigma-Aldrich. GUS was incubated with the substrate in 50 mM MES, pH 6.3, for 15 minutes.

B1: human recombinant monoamine oxidase B (MAO B) (Homo sapiens) (protein)
chain: MSNKCDVVVVGGGISGMAAAKLLHDSGLNVVVLEARDRVGGRTYTLRNQKVKYVDLGGSYVGPTQNRILRLAKELGLETYKVNEVERLIHHVKGKSYPFRGPFPPVWNPITYLDHNNFWRTMDDMGREIPSDAPWKAPLAEEWDNMTMKELLDKLCWTESAKQLATLFVNLCVTAETHEVSALWFLWYVKQCGGTTRIISTTNGGQERKFVGGSGQVSERIMDLLGDRVKLERPVIYIDQTRENVLVETLNHEMYEAKYVISAIPPTLGMKIHFNPPLPMMRNQMITRVPLGSVIKCIVYYKEPFWRKKDYCGTMIIDGEEAPVAYTLDDTKPEGNYAAIMGFILAHKARKLARLTKEERLKKLCELYAKVLGSLEALEPVHYEEKNWCEEQYSGGCYTTYFPPGILTQYGRVLRQPVDRIYFAGTETATHWSGYMEGAVEAGERAAREILHAMGKIPEDEIWQSEPESVDVPAQPITTTFLERHLPSVPGLLRLIGLTTIFSATALGFLAHKRGLLVRV
notes: purchased Sigma Chemical Company M-7441; host or cells: baculovirus infected insect cells (microsomes)
Protein B1 has a Km [1] of 16 ± 1 µM, a Km ([2]; other: fit of Table 21) of 24 ± 1 µM and a Km ([2]; other: fit of Tables 23-24) of 1880 µM. It also gave a Km [3] of 650 µM.

B2: human recombinant monoamine oxidase A (MAO A) (Homo sapiens) (protein)
chain: MENQEKASIAGHMFDVVVIGGGISGLSAAKLLTEYGVSVLVLEARDRVGGRTYTIRNEHVDYVDVGGAYVGPTQNRILRLSKELGIETYKVNVSERLVQYVKGKTYPFRGAFPPVWNPIAYLDYNNLWRTIDNMGKEIPTDAPWEAQHADKWDKMTMKELIDKICWTKTARRFAYLFVNINVTSEPHEVSALWFLWYVKQCGGTTRIFSVTNGGQERKFVGGSGQVSERIMDLLGDQVKLNHPVTHVDQSSDNIIIETLNHEHYECKYVINAIPPTLTAKIHFRPELPAERNQLIQRLPMGAVIKCMMYYKEAFWKKKDYCGCMIIEDEDAPISITLDDTKPDGSLPAIMGFILARKADRLAKLHKEIRKKKICELYAKVLGSQEALHPVHYEEKNWCEEQYSGGCYTAYFPPGIMTQYGRVIRQPVGRIFFAGTETATKWSGYMEGAVEAGERAAREVLNGLGKVTEKDIWVQEPESKDVPAVEITHTFWERNLPSVSGLLKIIGFSTSVTALGFVLYKYKLLPRS
notes: purchased Sigma Chemical Company M-7316; host or cells: baculovirus infected insect cells (microsomes)
For B2, the Km [4] was 21 ± 1 µM, the Km [5] was 1320 µM and the Km ([6]; other: fit of Table 22) was 1560 ± 130 µM. For the same protein, the Km ([6]; other: fit of Tables 23-24) was 1700 µM.

B3: human recombinant flavin-containing monooxygenase 3 (FMO 3) (Homo sapiens) (protein)
chain: MGKKVAIIGAGVSGLASIRSCLEEGLEPTCFEKSNDIGGLWKFSDHAEEGRASIYKSVFSNSSKEMMCFPDFPFPDDFPNFMHNSKIQEYIIAFAKEKNLLKYIQFKTFVSSVNKHPDFATTGQWDVTTERDGKKESAVFDAVMVCSGHHVYPNLPKESFPGLNHFKGKCFHSRDYKEPGVFNGKRVLVVGLGNSGCDIATELSRTAEQVMISSRSGSWVMSRVWDNGYPWDMLLVTRFGTFLKNNLPTAISDWLYVKQMNARFKHENYGLMPLNGVLRKEPVFNDELPASILCGIVSVKPNVKEFTETSAIFEDGTIFEGIDCVIFATGYSFAYPFLDESIIKSRNNEIILFKGVFPPLLEKSTIAVIGFVQSLGAAIPTVDLQSRWAAQVIKGTCTLPSMEDMMNDINEKMEKKRKWFGKSETIQTDYIVYMDELSSFIGAKPNIPWLFLTDPKLAMEVYFGPCSPYQFRLVGPGQWPGARNAILTQWDRSLKPMQTRVVGRLQKPCFFFHWLKLFAIPILLIAVFLVLT
notes: purchased Sigma Chemical Company F-5053; host or cells: baculovirus infected insect cells (microsomes)
For B3, the Km [7] was 200 ± 20 µM.

B4: beta-glucuronidase (GUS) (Homo sapiens) (protein)
chain: LQGGMLYPQESPSRECKELDGLWSFRADFSDNRRRGFEEQWYRRPLWESGPTVDMPVPSSFNDISQDWRLRHFVGWVWYEREVILPERWTQDLRTRVVLRIGSAHSYAIVWVNGVDTLEHEGGYLPFEADISNLVQVGPLPSRLRITIAINNTLTPTTLPPGTIQYLTDTSKYPKGYFVQNTYFDFFNYAGLQRSVLLYTTPTTYIDDITVTTSVEQDSGLVNYQISVKGSNLFKLEVRLLDAENKVVANGTGTQGQLKVPGVSLWWPYLMHERPAYLYSLEVQLTAQTSLGPVSDFYTLPVGIRTVAVTKSQFLINGKPFYFHGVNKHEDADIRGKGFDWPLLVKDFNLLRWLGANAFRTSHYPYAEEVMQMCDRYGIVVIDECPGVGLALPQFFNNVSLHHHMQVMEEVVRRDKNHPAVVMWSVANEPASHLESAGYYLKMVIAHTKSLDPSRPVTFVSNSNYAADKGAPYVDVICLNSYYSWYHDYGHLELIQLQLATQFENWYKKYQKPIIQSEYGAETIAGFHQDPPLMFTEEYQKSLLEQYHLGLDQKRRKYVVGELIWNFADFMTEQSPTRVLGNKKGIFTRQRQPKSAAFLLRERYWKIANETRYPHSVAKSQCLENSLFT
notes: purchased Sigma-Aldrich
Protein B4 has a Km [8] of 180 ± 30 µM.
